Laboratory results taken from patent CN112125972A.

How the values were obtained:
Experiment in all cases: double-antibody sandwich ELISA, R001 as detection antibody, against reference products of the different expression systems
[1] = molecular target: E1.16 HPV16 VLPs (Human papillomavirus type 16) (UniProt P03101)
[2] = molecular target: E2.16 HPV16 VLPs (Human papillomavirus type 16) (UniProt P03101)
[3] = molecular target: I1.16 HPV16 VLPs (Human papillomavirus type 16) (UniProt P03101)
[4] = molecular target: Y1.16 HPV16 VLPs (Human papillomavirus type 16) (UniProt P03101)
[5] = molecular target: Y2.16 HPV16 VLPs (Human papillomavirus type 16) (UniProt P03101)

Measured: 抗原/蛋白比值

B1: HPV 16 R001 (antibody, V domains shown)
VH: QSVKESEGRLVTPGTPLTLTCTASGFTMSRYHMTWVRQAPGKGLEWIGIIYARNSDTYYANWAKGRFTISKTSTTVDLKITSPTIEDTATYFCARVDSDSSGAFDRLDLWGQGTLVTVSS
VL: DPMLTQTAASVEVAVGGTVTIKCQASQSIGGYLSWYQQKPGQRPKLLIYRASTLASGVPSRFKGSGSGTEYTLTFSGVECADAAAYYCQQGYTSSDINNAFGGGTEVVVK
1: all assays above
